Data on 17 sequences can be found in the Immune Epitope Database (IEDB).

Experiment [1] deals with HLA-A*01:01. Nature of the experiment: IEDB peptide-MHC binding, purified MHC/competitive/fluorescence; filed as Kd, often an IC50 or EC50 that approximates it; ≥ and ≤ were set here for values at or beyond the usual limits of such assays.
Experiment [2] addresses HLA-A*03:01. The experiment is described as above. Particulars: source organism: Yersinia pestis Nepal516.
For experiment [3], the target named is HLA-B*15:01. The description is as above. Particulars: source organism: Yersinia pestis Nepal516.
The next experiment has as its target HLA-B*35:01. Described as above.
For experiment [4], the target named is HLA-A*01:01. The experiment can be described thus: IEDB peptide-MHC binding, purified MHC/direct/fluorescence; filed as Kd, often an IC50 or EC50 that approximates it; ≥ and ≤ were set here for values at or beyond the usual limits of such assays.
Experiment [5] deals with HLA-A*02:01. The experiment is described as above.
Experiment [6] has as its target HLA-A*11:01. The experiment is described as above.
Another experiment deals with HLA-A*31:01. The experiment is described as above.
Another experiment addresses HLA-A*68:02. The description is as above. The settings on record: source organism: Escherichia coli O157:H7.
For experiment [7], the target named is HLA-A*69:01. The experiment is described as above.
In another experiment the target is HLA-B*07:02. The description is as above.
Experiment [8] has as its target HLA-B*15:17. The description is as above.
The target in experiment [9] is HLA-B*18:01. The experiment is described as above. The settings on record: source organism: Escherichia coli O157:H7.
For another experiment, the target named is HLA-B*27:05. The description is as above.
The target of experiment [10] is HLA-B*40:01. The experiment is described as above.
A further experiment addresses HLA-B*48:01. The experiment is described as above. The settings on record: source organism: Escherichia coli O157:H7.
In the next experiment the target is HLA-B*57:01. Described as above.
Another experiment has as its target HLA-B*58:01. Described as above.
The target in experiment [11] is HLA-A*02:01. The experiment can be described thus: IEDB peptide-MHC binding, purified MHC/competitive/fluorescence; ≥ and ≤ were set here for values at or beyond the usual limits of such assays. The settings on record: source organism: Zaire ebolavirus.
For experiment [12], the target named is HLA-B*15:01. Described as above.
Experiment [13] deals with HLA-A*02:01. The experiment can be described thus: IEDB peptide-MHC binding, purified MHC/competitive/fluorescence; filed as Kd, often an IC50 or EC50 that approximates it; ≥ and ≤ were set here for values at or beyond the usual limits of such assays.
In a further experiment the target is HLA-A*02:19. The experiment is described as above.
Experiment [14] concerns the target HLA-A*69:01. Described as above. The settings on record: source organism: Human immunodeficiency virus 1.
For a further experiment, the target named is HLA-A*02:03. The experiment is described as above. Particulars: source organism: Human immunodeficiency virus 1.
The target in experiment [15] is HLA-B*15:17. Described as above. Particulars: source organism: Human immunodeficiency virus 1.
Experiment [16] concerns the target HLA-A*24:02. Nature of the experiment: IEDB peptide-MHC binding, purified MHC/competitive/fluorescence; ≥ and ≤ were set here for values at or beyond the usual limits of such assays.
The target in experiment [17] is HLA-A*03:01. The experiment can be described thus: IEDB peptide-MHC binding, purified MHC/direct/fluorescence; filed as Kd, often an IC50 or EC50 that approximates it; ≥ and ≤ were set here for values at or beyond the usual limits of such assays.
The target of experiment [18] is HLA-B*15:01. The description is as above.
Experiment [19] deals with HLA-B*18:01. The experiment can be described thus: IEDB peptide-MHC binding, purified MHC/competitive/radioactivity; filed as Kd, often an IC50 or EC50 that approximates it; ≥ and ≤ were set here for values at or beyond the usual limits of such assays. The settings on record: source organism: SARS coronavirus Tor2.
Experiment [20] addresses HLA-B*40:01. The description is as above. The settings on record: source organism: SARS coronavirus Tor2.
For another experiment, the target named is HLA-B*40:02. Described as above. The settings on record: source organism: SARS coronavirus Tor2.
Another experiment deals with HLA-B*44:02. The description is as above. The settings on record: source organism: SARS coronavirus Tor2.
A further experiment deals with HLA-B*44:03. Described as above. Particulars: source organism: SARS coronavirus Tor2.
Another experiment addresses HLA-B*45:01. Described as above. The settings on record: source organism: SARS coronavirus Tor2.
The target in experiment [21] is HLA-A*11:01. Nature of the experiment: IEDB peptide-MHC binding, purified MHC/competitive/fluorescence; ≥ and ≤ were set here for values at or beyond the usual limits of such assays. The settings on record: source organism: Vaccinia virus Copenhagen.
Experiment [22] concerns the target HLA-A*24:02. Nature of the experiment: IEDB peptide-MHC binding, purified MHC/direct/fluorescence; filed as Kd, often an IC50 or EC50 that approximates it; ≥ and ≤ were set here for values at or beyond the usual limits of such assays. Particulars: source organism: Influenza A virus (A/equine/New York/1/1999(H3N8)).
The target of another experiment is HLA-B*08:01. The experiment is described as above. The settings on record: source organism: Influenza A virus (A/equine/New York/1/1999(H3N8)).
The next experiment deals with HLA-B*15:09. The experiment is described as above. The settings on record: source organism: Influenza A virus(A/swine/Shandong/fNY/2003(H9N2)).
The mark [23] stands for this setting: source organism: Yersinia pestis Nepal516.
Setting [24] is: source organism: Escherichia coli O157:H7.
Setting [25] is: source organism: Bacillus anthracis str. A2012.
Setting [26] is: source organism: Zaire ebolavirus.
Setting [27] is: source organism: Human immunodeficiency virus 1.
Setting [28] is: source organism: Bacillus anthracis.
Setting [29] is: source organism: Entamoeba histolytica HM-1:IMSS.
[30] abbreviates: source organism: Vaccinia virus Copenhagen.
The mark [31] stands for this setting: source organism: Influenza A virus (A/equine/New York/1/1999(H3N8)).

On to CLLSHTLAY, for which the equilibrium dissociation constant (Kd) (commonly the free concentration of one partner at which half of the binding sites on the other are occupied at equilibrium, for simple one-to-one binding) with HLA-A*01:01 [1] (setting [23]) came out at 1.06 µM; with HLA-A*03:01 [2], 0.0643 µM; with HLA-B*15:01 [3], 0.225 µM; with HLA-B*35:01 (setting [23]), 0.0246 µM.
As for HEVHAVWPG, the Kd with HLA-A*01:01 [4] (setting [24]), in the experiment with HLA-A*02:01 [5] (setting [24]), in the experiment with HLA-A*11:01 [6] (setting [24]), with HLA-A*31:01 (setting [24]), with HLA-A*68:02 and with HLA-A*69:01 [7] (setting [24]) was no less than 20 µM throughout. Moreover, the equilibrium dissociation constant (Kd) with HLA-B*07:02 (setting [24]) was no less than 20 µM; with HLA-B*15:17 [8] (setting [24]), no less than 20 µM; with HLA-B*18:01 [9], 0.193 µM; in the experiment with HLA-B*27:05 (setting [24]), no less than 20 µM; in the experiment with HLA-B*40:01 [10] (setting [24]), no less than 20 µM; with HLA-B*48:01, no less than 20 µM. Besides, the Kd with HLA-B*57:01 (setting [24]) and with HLA-B*58:01 (setting [24]) was no less than 20 µM each time.
In turn, HSNASTLLY displayed a Kd in the experiment with HLA-A*01:01 [1] (source organism: Staphylococcus aureus subsp. aureus N315) of 0.0025 µM.
For ITTFFTFAY, the Kd with HLA-A*01:01 [1] (setting [25]) worked out at 0.14 µM; with HLA-B*35:01 (setting [25]), 0.192 µM.
For the sequence KLTEAITAA, the values for the half-inhibitory concentration (IC50) in the experiment with HLA-A*02:01 [11] and with HLA-B*15:01 [12] (setting [26]) were 2.05 µM and no less than 171 µM, respectively.
With LTFGWCFKL, the equilibrium dissociation constant (Kd) with HLA-A*02:01 [13] (setting [27]) worked out at 0.151 µM; in the experiment with HLA-A*02:19 (setting [27]), 0.755 µM; with HLA-A*69:01 [14], 0.0465 µM.
Take LYNTVATLY: the results for the Kd in the experiment with HLA-A*02:01 [13] (setting [27]), in the experiment with HLA-A*02:03 and with HLA-B*15:17 [15] were 1.16 µM, 0.571 µM and no less than 20 µM, respectively.
As for QAFEAGVDF, the figures for the IC50 with HLA-A*02:01 [11], with HLA-A*24:02 [16] (setting [26]) and with HLA-B*15:01 [12] (setting [26]) were no less than 475 µM, 29.4 µM and 30.6 µM, respectively.
On to RTIQGQRFW, for which the Kd in the experiment with HLA-A*01:01 [4] (setting [28]), with HLA-A*02:01 [5] (setting [28]), with HLA-A*03:01 [17] (setting [28]), in the experiment with HLA-B*07:02 (setting [28]), with HLA-B*15:01 [18] (setting [28]) and in the experiment with HLA-B*15:17 [8] (setting [28]) was no less than 20 µM throughout. Moreover, the dissociation constant (Kd) in the experiment with HLA-B*27:05 (setting [28]), with HLA-B*57:01 (setting [28]) and with HLA-B*58:01 (setting [28]) was no less than 20 µM throughout.
Turning to SEQSLRLVDA, the equilibrium dissociation constant (Kd) came to 3.61 µM with HLA-B*18:01 [19]; 18.7 µM with HLA-B*40:01 [20]; 0.47 µM in the experiment with HLA-B*40:02; 0.0916 µM with HLA-B*44:02; 0.436 µM with HLA-B*44:03; 0.00586 µM with HLA-B*45:01.
In the case of SMFYGIFPS, the Kd with HLA-A*02:01 [13] (setting [29]) turned out to be 0.0002 µM; with HLA-A*02:19 (setting [29]), 0.285 µM.
On to SQMTSTFIM, for which the results for the half-maximal inhibitory concentration (IC50) in the experiment with HLA-A*11:01 [21], with HLA-A*24:02 [16] (setting [30]) and with HLA-B*15:01 [12] (setting [30]) were 1.59 µM, 2.16 µM and 1.75 µM, respectively.
For the sequence VAGGTSSVY, the Kd in the experiment with HLA-A*01:01 [4] (setting [31]), in the experiment with HLA-A*02:01 [5] (setting [31]), in the experiment with HLA-A*03:01 [17] (setting [31]), with HLA-A*11:01 [6] (setting [31]), with HLA-A*24:02 [22] and in the experiment with HLA-A*31:01 (setting [31]) was no less than 20 µM throughout. Also, the dissociation constant Kd with HLA-A*69:01 [7] (setting [31]) is no less than 20 µM; with HLA-B*07:02 (setting [31]), no less than 20 µM; with HLA-B*08:01, no less than 20 µM; with HLA-B*15:01 [18] (source organism: Influenza A virus (A/Puerto Rico/8/34/Mount Sinai(H1N1))), 0.129 µM; in the experiment with HLA-B*15:09, no less than 20 µM; with HLA-B*27:05 (setting [31]), no less than 20 µM. The Kd with HLA-B*40:01 [10] (setting [31]) is no less than 20 µM; with HLA-B*58:01 (setting [31]), 2.89 µM; in the experiment with HLA-B*35:01 (source organism: Influenza A virus (A/quail/Hong Kong/SF550/00(H6N1))), 0.0109 µM.
As to VETVSLAGSY, the Kd in the experiment with HLA-B*18:01 [19] was 1.68 µM; with HLA-B*40:01 [20], 17.7 µM; with HLA-B*40:02, no less than 70.8 µM; in the experiment with HLA-B*44:02, 3.22 µM; in the experiment with HLA-B*44:03, 1.29 µM; in the experiment with HLA-B*45:01, 11.7 µM.
For VKYLEGHGF, the IC50 (as a rule, the concentration at which inhibition is half-maximal) was no less than 160 µM with HLA-A*02:01 [11], 14.4 µM with HLA-A*24:02 [16] (setting [26]) and no less than 72.1 µM with HLA-B*15:01 [12] (setting [26]).
Consider WASRELERF, for which the Kd stood at 0.0275 µM with HLA-B*58:01 (source organism: Human immunodeficiency virus type 1 BH10) and 0.0568 µM with HLA-B*35:01 (setting [27]).
Turning to YQATGFGTN, the figures for the concentration for half-maximal inhibition (IC50) with HLA-A*02:01 [11], in the experiment with HLA-A*24:02 [16] (setting [26]) and in the experiment with HLA-B*15:01 [12] (setting [26]) were no less than 146 µM, no less than 231 µM and 22.7 µM, respectively.
